Test results: PMC5389901

Biological target: INSM1 ZF4-5 (Homo sapiens, UniProt Q01101 424-497)
Assay: ITC

INSM1 ZF4-5, sequence (Q01101 424-497): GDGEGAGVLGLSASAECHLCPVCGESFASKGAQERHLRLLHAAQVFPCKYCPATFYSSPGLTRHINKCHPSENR

B1: INSM1 consensus dsDNA (dsDNA)
DNA 1: TGTCAGGGGGCA
DNA 2: TGCCCCCTGACA
Question: How did the Kd turn out when B1 was run?
Answer: The Kd was 21.8 µM.
